Experimental data taken from patent publication US20160152711A1.

What was measured:
[1] = target: sEGFR domain III (residues 310-512) (human) (UniProt P00533); test: size exclusion chromatography (Superdex 200), 4 µM, domain III with Fab 425 and Fab C225 together
[2] = target: sEGFR domain III (residues 310-512) (human) (UniProt P00533); test: size exclusion chromatography (Superdex 200), 4 µM; the individual proteins elute at 15.6 mL
[3] = target: sEGFR domain III S460P/G461N (human) (UniProt P00533); test: as above

**Q.** For Fab 425, which elution volume of the tripartite complex [1] is on record?
**A.** 13.1 mL

**Q.** And the elution volume of the complex [2]?
**A.** 13.9 mL

**Q.** What about the elution volume of the mixture [3] of the same substance?
**A.** 15.2 mL
